# Molecular target: 人CD47 (human CD47) (human) (UniProt Q08722)
# Experiment: FACS competition on CHOK1 cells stably transfected with human CD47; competitor 1 μg/ml human SIRPα-His
# Chain of UniProt Q08722 (Q08722 19-323): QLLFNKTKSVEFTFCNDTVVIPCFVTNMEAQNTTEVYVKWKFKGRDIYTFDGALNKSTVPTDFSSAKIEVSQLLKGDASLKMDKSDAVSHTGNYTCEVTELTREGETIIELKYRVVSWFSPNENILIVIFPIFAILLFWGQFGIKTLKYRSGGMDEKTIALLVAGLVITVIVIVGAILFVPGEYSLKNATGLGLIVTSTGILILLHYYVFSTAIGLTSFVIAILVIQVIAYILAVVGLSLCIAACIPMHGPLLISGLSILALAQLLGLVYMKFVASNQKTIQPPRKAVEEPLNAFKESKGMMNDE
row,阻断率,Binder
1,> 90%,"W3452-2.683.2-z27-IgG1L (antibody, V domains shown) VH: EVQLVESGGGLVQPGRSLRLSCAASGFTFSTYGMAWVRQAPGKGLEWVSSISTSGGSTYYRDSVQGRFTISRDNAKSSLYLQMNSLRAEDTATYYCTTKGGRTYRLAYWGQGTLVTVSS VL: SYELMQPPSVSVSPGQTARITCSGIELSNKYAHWYQQKPGQAPVEVMYKDSERPSGIPERFSGSRSGTTVTLTISGVQAEDEADYYCLSTNSDDDLPVFGGGTKLTVL"
2,> 90%,"W3452-2.683.2-z27-IgG4PE,L (antibody, V domains shown) VH: EVQLVESGGGLVQPGRSLRLSCAASGFTFSTYGMAWVRQAPGKGLEWVSSISTSGGSTYYRDSVQGRFTISRDNAKSSLYLQMNSLRAEDTATYYCTTKGGRTYRLAYWGQGTLVTVSS VL: SYELMQPPSVSVSPGQTARITCSGIELSNKYAHWYQQKPGQAPVEVMYKDSERPSGIPERFSGSRSGTTVTLTISGVQAEDEADYYCLSTNSDDDLPVFGGGTKLTVL"
3,> 90%,"W3452-1.164.16-z11-IgG1K (antibody, V domains shown) VH: QVQLQESGPGLVKPSETLSLTCTVSGFSLTNYHVYWIRQPPGKGLEWIGVMWNHGDTSYNSPLKSRVTISVDTSKSQFSLKLSSVTAADTAVYYCARGGYVPDYWGQGTMVTVSS VL: DIVMTQSPLSLPVTPGEPASISCRSSQSLVHSNAKTYLHWYLQKPGQSPQLLIYRVSNRFSGVPDRFSGSGSGTDFTLKISRVEAEDVGVYYCLQTTHFPYTFGQGTKLEIK"

# — CN110305214A
